Drawing on paper PMC5093408, this text covers stoichiometry N for 6 substances.

The target in assay [1] is HUSpm Asn92Lys mutant (Spiroplasma melliferum KC3). Put plainly: SEC; size-exclusion chromatography of the purified point mutants; conditions not given.
The target in assay [2] is histone-like HU protein from Spiroplasma melliferum KC3 (Spiroplasma melliferum KC3). Description: crystal structure; hanging-drop vapour diffusion at 4 °C; protein 14 mg/ml in 20 mM Tris HCl pH 8.0, 200 mM NaCl, 5% glycerol; reservoir 0.1 M Tris HCl pH 8.0, 35% v/v PEG 400, 5% glycerol; one monomer per asymmetric unit, dimer by a crystallographic twofold axis; 1.4 Å.
Assay [3] concerns the target HUSpm Val17Thr mutant (Spiroplasma melliferum KC3). Put plainly: SEC; size-exclusion chromatography of the purified point mutants; conditions not given.
Assay [4] deals with HUSpm Phe29Ala mutant (Spiroplasma melliferum KC3). Described as above.
The target of assay [5] is HUSpm Phe14Ala mutant (Spiroplasma melliferum KC3). Described as above.
The target in assay [6] is HUSpm Lys35Thr mutant (Spiroplasma melliferum KC3). The description is as above.

The stoichiometry N is a count of units in the complex or per binding partner. HUSpm Asn92Lys mutant (natural protein) showed a stoichiometry N in assay [1] of 2. As to “histone-like HU protein from Spiroplasma melliferum KC3 (natural protein)”, the stoichiometry N in assay [2] came out at 2.

Take HUSpm Val17Thr mutant (natural protein): in assay [3], the stoichiometry N worked out at 2.

HUSpm Phe29Ala mutant (natural protein): the stoichiometry N in assay [4] was determined as 2. For HUSpm Phe14Ala mutant (natural protein), the stoichiometry N in assay [5] turned out to be 2. Consider HUSpm Lys35Thr mutant (natural protein), for which the stoichiometry N in assay [6] is 2.
